This note sets out measurements from paper PMC11272584 (Nature Metabolism, 2024).

For assay [1], the target named is T1, GIPR R164Q (human) (UniProt P48546).
T1 sequence: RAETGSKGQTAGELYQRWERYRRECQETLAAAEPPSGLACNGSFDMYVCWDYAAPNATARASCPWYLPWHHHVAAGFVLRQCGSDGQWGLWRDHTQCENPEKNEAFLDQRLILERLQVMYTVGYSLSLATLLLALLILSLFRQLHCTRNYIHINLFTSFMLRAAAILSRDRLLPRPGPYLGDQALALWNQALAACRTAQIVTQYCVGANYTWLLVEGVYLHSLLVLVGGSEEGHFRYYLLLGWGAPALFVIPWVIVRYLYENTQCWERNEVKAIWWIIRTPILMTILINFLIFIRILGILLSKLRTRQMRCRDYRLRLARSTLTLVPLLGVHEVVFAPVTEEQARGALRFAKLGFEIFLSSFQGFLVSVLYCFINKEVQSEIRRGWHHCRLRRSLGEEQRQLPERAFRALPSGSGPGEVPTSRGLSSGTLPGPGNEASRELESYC

Assay [2] has as its target T2, GIPR T116R (human) (UniProt P48546).
T2 sequence: T1 sequence with T95R, Q143R

Assay [3] concerns the target T3, GIPR R38L (human) (UniProt P48546).
T3 sequence: T1 sequence with R17L, Q143R

Assay [4] concerns the target T4, GIPR A207V (human) (UniProt P48546).
T4 sequence: T1 sequence with Q143R, A186V

Assay [5] addresses T5, GIPR T168A (human) (UniProt P48546).
T5 sequence: T1 sequence with Q143R, T147A

The target of assay [6] is T6, GIPR A185V (human) (UniProt P48546).
T6 sequence: T1 sequence with Q143R, A164V

Substitutions are numbered along the chain they refer to.

As for “β-arrestin 2 (Rluc8-Arrestin-3-Sp1) (from UniProt P32121 1-409) (natural protein)”, the β-arrestin 2 recruitment (BRET) on stimulation with GIP(1-42): logEC50 (Arrestin) (log M (inferred)) in assay [1] is -8.92; in assay [2] it was -8.71; in assay [3], -9; in assay [4], -9.42; in assay [5] it was -9.27; in assay [6] it was -8.96.
